Positions count from the first letter of the chain named. Read-outs that look alike come from different tables or passages of the source.
Experiments:
FcγRIIIa [1] = biological target: T1, FcγRIIIa (human, UniProt P08637 17-208); assay: SPR, relative to GpH7-A5/GpH7-B3/GpL16-k0 =100
T1 construct: extracellular domain; also called 3a
T1 sequence (P08637 other isoform, or with tags, fused parts or gaps): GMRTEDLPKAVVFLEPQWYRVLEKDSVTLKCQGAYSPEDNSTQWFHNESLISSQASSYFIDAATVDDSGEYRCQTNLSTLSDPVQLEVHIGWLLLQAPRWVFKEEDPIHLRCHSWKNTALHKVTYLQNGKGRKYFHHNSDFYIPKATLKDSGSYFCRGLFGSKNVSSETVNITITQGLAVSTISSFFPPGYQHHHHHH

FcγRIIa(R) = biological target: T2, FcγRIIa(R) (human, UniProt P12318 34-217); assay: SPR, relative to GpH7-A5/GpH7-B3/GpL16-k0 =100
T2 construct: extracellular domain; also called 2aR
T2 sequence: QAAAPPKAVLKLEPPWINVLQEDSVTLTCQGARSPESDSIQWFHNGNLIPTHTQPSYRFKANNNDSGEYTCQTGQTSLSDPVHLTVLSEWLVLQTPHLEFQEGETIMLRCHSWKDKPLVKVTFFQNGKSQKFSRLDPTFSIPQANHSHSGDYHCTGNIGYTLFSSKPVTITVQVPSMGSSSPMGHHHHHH

FcγRIIa(H) = biological target: T3, FcγRIIa(H) (human, UniProt P12318 34-217); assay: SPR, relative to GpH7-A5/GpH7-B3/GpL16-k0 =100
T3 construct: extracellular domain; also called 2aH
T3 sequence: T2 sequence with R134H

FcγRIa = biological target: T4, FcγRIa (human, UniProt P12314 16-292); assay: SPR, relative to GpH7-A5/GpH7-B3/GpL16-k0 =100
T4 construct: extracellular domain; also called 1a
T4 sequence (P12314 other isoform, or with tags, fused parts or gaps): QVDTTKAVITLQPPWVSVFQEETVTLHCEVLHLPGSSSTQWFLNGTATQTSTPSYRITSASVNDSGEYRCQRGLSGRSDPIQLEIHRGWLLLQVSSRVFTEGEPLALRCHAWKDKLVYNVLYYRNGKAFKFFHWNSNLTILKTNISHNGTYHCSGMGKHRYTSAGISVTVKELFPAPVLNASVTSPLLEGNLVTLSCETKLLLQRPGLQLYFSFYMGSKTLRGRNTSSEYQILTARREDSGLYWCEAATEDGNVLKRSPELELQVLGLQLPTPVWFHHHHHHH

FcγRIIb = biological target: T5, FcγRIIb (human, UniProt P31994 43-217); assay: SPR, relative to GpH7-A5/GpH7-B3/GpL16-k0 =100
T5 construct: extracellular domain; also called 2b
T5 sequence: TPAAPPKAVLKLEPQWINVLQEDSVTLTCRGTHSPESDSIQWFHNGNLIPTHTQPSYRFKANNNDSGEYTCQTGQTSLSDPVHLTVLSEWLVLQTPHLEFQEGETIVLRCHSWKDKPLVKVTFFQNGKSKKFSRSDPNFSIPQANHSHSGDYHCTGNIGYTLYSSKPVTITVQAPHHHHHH

[2] = biological target: T6, FcγRIIIa(V) extracellular domain with C-terminal His tag (human, UniProt P08637 17-208); assay: SPR (Biacore), captured antibody, FcγR analyte, 1:1 Langmuir fit
T6 construct: extracellular domain; polymorphic form V158; also called FcγRIIIa V type
T6 sequence (P08637 other isoform, or with tags, fused parts or gaps): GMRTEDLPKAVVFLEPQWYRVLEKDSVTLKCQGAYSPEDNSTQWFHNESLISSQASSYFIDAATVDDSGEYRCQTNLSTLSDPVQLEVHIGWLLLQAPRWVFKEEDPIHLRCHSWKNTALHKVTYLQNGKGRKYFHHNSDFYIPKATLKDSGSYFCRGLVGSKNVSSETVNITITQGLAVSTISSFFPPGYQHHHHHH
Procedure: (§1) The antibody of interest was analyzed for its interaction with FcγR using a BiaCore™ T100, BiaCore™ A100, or BiaCore™ 4000 surface plasmon resonance system (GE Healthcare Japan Corp.). The running buffer used was HBS-EP+ (GE Healthcare Japan Corp.). The assay temperature was set to 25° C. The sensor chips used were: a chip prepared by immobilizing antigenic peptides onto Series S Sensor Chip CM5 (GE Healthcare Japan Corp.) by the amine coupling method; a chip prepared by immobilizing antigenic peptides biotinylated in advance onto Series S Sensor Chip SA (certified) (GE Healthcare Japan Corp.) through their interaction; a chip prepared by immobilizing protein L (ACTIGEN, BioVision, Inc.) onto Series S Sensor Chip CM5 (GE Healthcare Japan Corp.); and a chip prepared by immobilizing protein A/G (Thermo Fisher Scientific K.K.) onto Series S Sensor Chip CM5 (GE Healthcare Japan Corp.). The antibody of interest was captured onto any of these chips and allowed to interact with FcγR diluted with a running buffer. The antibody captured on the chip was washed off through the reaction of 10 mM glycine-HCl (pH 1.5) to regenerate the chip, which was repetitively used.

[3] = biological target: T7, FcγRIIa(H) extracellular domain with C-terminal His tag (human, UniProt P12318 34-217); assay: as above
T7 construct: extracellular domain; polymorphic form H131; also called FcγRIIa H type
T7 sequence: T2 sequence with R134H
Procedure: as §1

[4] = biological target: T8, FcγRIIb extracellular domain with C-terminal His tag (human, UniProt P31994 43-217); assay: as above
T8 construct: extracellular domain
T8 sequence: T5 sequence
Procedure: as §1

[5] = biological target: T9, FcγRIIIa(F) extracellular domain with C-terminal His tag (human, UniProt P08637 17-208); assay: as above
T9 construct: extracellular domain; polymorphic form F158; also called FcγRIIIa F type
Procedure: as §1

[6] = biological target: T10, FcγRIIa(R) extracellular domain with C-terminal His tag (human, UniProt P12318 34-217); assay: as above
T10 construct: extracellular domain; polymorphic form R131; also called FcγRIIa R type
T10 sequence: T2 sequence
Procedure: as §1

[7] = biological target: T11, FcγRIa extracellular domain with C-terminal His tag (human, UniProt P12314 16-292); assay: as above
T11 construct: extracellular domain
T11 sequence (P12314 other isoform, or with tags, fused parts or gaps): as the sequence (P12314 other isoform, or with tags, fused parts or gaps) above
Procedure: as §1

[8] = biological target: T6, FcγRIIIa(V) extracellular domain with …; assay: as above; remark: listed apart in the source
Procedure: as §1

[9] = biological target: T7, FcγRIIa(H) extracellular domain with …; assay: as above; remark: listed apart in the source
Procedure: as §1

[10] = biological target: T8, FcγRIIb extracellular domain with …; assay: as above; remark: listed apart in the source
Procedure: as §1

[11] = biological target: T9, FcγRIIIa(F) extracellular domain with …; assay: as above; remark: listed apart in the source
Procedure: as §1

[12] = biological target: T10, FcγRIIa(R) extracellular domain with …; assay: as above; remark: listed apart in the source
Procedure: as §1

[13] = biological target: T11, FcγRIa extracellular domain with …; assay: as above; remark: listed apart in the source
Procedure: as §1

FcγRIIIa [14] = biological target: T12, FcγRIIIa (human, UniProt P08637 17-208); assay: SPR (Biacore T100), antibody captured on protein L chip, FcγRIIIa as analyte, TBS(+), 25 C, 1:1 Langmuir fit
T12 construct: extracellular domain; also called 3a
Procedure: Specifically, their interaction with FcγRIIIa was analyzed using BiaCore™ T100 surface plasmon resonance system (GE Healthcare Japan Corp.). The running buffer used was the TBS(+) solution used in the preceding paragraph. The assay temperature was set to 25° C. Protein L was immobilized onto Series S Sensor Chip CM4 (GE Healthcare Japan Corp.) by the amine coupling method to prepare a chip. Each antibody of interest was captured onto the protein L-immobilized chip and allowed to interact with FcγRIIIa diluted with a running buffer. The antibody captured on the chip was washed off through the reaction of 10 mM glycine-HCl (pH 1.5) to regenerate the chip, which was repetitively used.
Each antibody was evaluated for its binding activity against FcγRIIIa with binding activity against FcγRIIIa and dissociation constant for FcγRIIIa as main indexes. […] Specifically, a sensorgram obtained by assay using BiaCore™ surface plasmon resonance Evaluation Software was globally fit into the 1:1 Langmuir model to calculate an association rate constant ka (L/mol/s) and a dissociation rate constant kd (1/s). From these values, the dissociation constant KD (mol/L) was calculated.

FcγRIIIaV = biological target: T13, FcγRIIIaV (human, UniProt P08637 17-208); assay: SPR (Biacore), antibody captured, FcγR as analyte, 1:1 Langmuir fit
T13 construct: extracellular domain
Procedure: as §1

B1: GpH7-A5/GpH7-B3 variant A327_01G/GpL16-k0 (antibody, human IgG1, kappa)
heavy 1: not shown
heavy 2: not shown
light: DIVMTQSPLSLPVTPGEPASISCQASESLVHSNRNTYLHWYLQKPGQSPQLLIYKVSNRFSGVPDRFSGSGSGTDFTLKISRVEAEDVGVYYCSQNTHVPPTFGQGTKVEIERTVAAPSVFIFPPSDEQLKSGTASVVCLLNNFYPREAKVQWKVDNALQSGNSQESVTEQDSKDSTYSLSSTLTLSKADYEKHKVYACEVTHQGLSSPVTKSFNRGEC
notes: He Ab: heterodimerized IgG1, one H chain mutated
Q: Which results are given for B1?
A: He/Con 3a (FcγRIIIa [1]): 74.4%; He/Con 2aR (FcγRIIa(R)): 126%; He/Con 2aH (FcγRIIa(H)): 115%; He/Con 1a (FcγRIa): 101%; He/Con 2b (FcγRIIb): 144%

B2: GpH7-A5/GpH7-B3 variant L328_10E/GpL16-k0 (antibody, human IgG1, kappa)
heavy 1: not shown
heavy 2: not shown
light: B1 light
notes: as for B1
Q: How did the “He/Con 3a” value (FcγRIIIa [1]) turn out when B2 was run?
A: Its value is 54.9%.

Q: And the “He/Con 2aR” value (FcγRIIa(R))?
A: Its value is 136%.

Q: And the “He/Con 2aH” value (FcγRIIa(H))?
A: Its value is 65.7%.

Q: And the “He/Con 1a” value (FcγRIa)?
A: Its value is 104%.

Q: And the “He/Con 2b” value (FcγRIIb)?
A: The value was 215%.

B3: GpH7-A5/GpH7-B3 variant S324_05P/GpL16-k0 (antibody, human IgG1, kappa)
heavy 1: not shown
heavy 2: not shown
light: B1 light
notes: as for B1
Q: For B3, which “He/Con 3a” value (FcγRIIIa [1]) is on record?
A: The value was 72.3%.

Q: What about the “He/Con 2aR” value (FcγRIIa(R)) of the same binder?
A: Its value is 94.6%.

Q: What about the “He/Con 2aH” value (FcγRIIa(H)) of the same binder?
A: Its value is 57.8%.

Q: And the “He/Con 1a” value (FcγRIa)?
A: The value was 97.8%.

Q: What about the “He/Con 2b” value (FcγRIIb) of the same binder?
A: Its value is 106%.

B4: GpH7-A5/GpH7-B3 variant S324_20W/GpL16-k0 (antibody, human IgG1, kappa)
heavy 1: not shown
heavy 2: not shown
light: B1 light
notes: as for B1
Q: How did the “He/Con 3a” value (FcγRIIIa [1]) turn out when B4 was run?
A: The value was 111%.

Q: And the “He/Con 2aR” value (FcγRIIa(R))?
A: The value was 106%.

Q: What about the “He/Con 2aH” value (FcγRIIa(H)) of the same binder?
A: Its value is 114%.

Q: And the “He/Con 1a” value (FcγRIa)?
A: The value was 108%.

Q: What about the “He/Con 2b” value (FcγRIIb) of the same binder?
A: Its value is 114%.

B5: H240-Kn033/H240-Hl033/L73-k0 (antibody, human IgG1, kappa)
heavy 1: not shown
heavy 2: not shown
light: DIQMTQSPSSLSASVGDRVTITCRASQDIHKYIAWYQQKPGQAPRLLIQYTSTLQPGVPSRFSGSGSGTDYTFTISSLQPEDIATYYCLQYEQLRTFGGGTKVEIKRTVAAPSVFIFPPSDEQLKSGTASVVCLLNNFYPREAKVQWKVDNALQSGNSQESVTEQDSKDSTYSLSSTLTLSKADYEKHKVYACEVTHQGLSSPVTKSFNRGEC
notes: anti-epiregulin IgG1, knobs-into-holes control; also called H240-Kn033/H240-HI033/L73-k0
Q: Which results are given for B5?
A: Kd [2]: 390 nM; Kd [3]: 930 nM; Kd [4]: 4100 nM; Kd [5]: 2600 nM; Kd [6]: 1000 nM; Kd [7]: 0.25 nM; Kd [8]: 390 nM; Kd [9]: 930 nM; Kd [10]: 4100 nM; Kd [11]: 2600 nM; Kd [12]: 1000 nM; Kd [13]: 0.25 nM

B6: H240-Kn125-ma1/H240-Hl076/L73 (antibody, human IgG1, kappa)
heavy 1: QDQLVQSGAEVKKPGASVKVSCKASGFNIKDTYIQWVRQAPGQGLEWMGRIDPLRKQTKYREKFEGRVTITADTSTNTAYMELSSLRSEDTAVYYCVRSGREFDYWGQGTLVTVSSASTKGPSVFPLAPSSKSTSGGTAALGCLVKDYFPEPVTVSWNSGALTSGVHTFPAVLQSSGLYSLSSVVTVPSSSLGTQTYICNVNHKPSNTKVDKKVEPKSCDKTHTCPPCPAPELLGGPSVFLFPPKPKDTLMISRTPEVTCVVVDVSHEEPEVKFNWYVDGVEVHNAKTKPREEQYNSTYRVVSVLTVLHQDWLNGKEYKCKVSNDALPMPIEETISKAKGQPREPQVYTLPPSRCELTKNQVSLSCAVKGFYPSDIAVEWESNGQPENNYKTTPPVLDSDGSFFLVSKLTVDKSRWQQGNVFSCSVMHEALHNHYTQKSLSLSP
heavy 2: QDQLVQSGAEVKKPGASVKVSCKASGFNIKDTYIQWVRQAPGQGLEWMGRIDPLRKQTKYREKFEGRVTITADTSTNTAYMELSSLRSEDTAVYYCVRSGREFDYWGQGTLVTVSSASTKGPSVFPLAPSSKSTSGGTAALGCLVKDYFPEPVTVSWNSGALTSGVHTFPAVLQSSGLYSLSSVVTVPSSSLGTQTYICNVNHKPSNTKVDKKVEPKSCDKTHTCPPCPAPEYQWGPMVFLFPPKPKDTLMISRTPEVTCVVVDVSGCRGDCLEPEVKFNWYVDGVEVHNAKTKPREEQYNATYRVVSVLTVLHQDWLNGKEYKCKVSNKALPAPIEKTISKAKGQPREPQVCTLPPSRDELTKNQVSLWCLVKGFYPSDIAVEWESNGQPENNYKTTPPVLDSDGSFFLYSKLTVDKSRWQQGNVFSCSVMHEALHNHYTQKSLSLSP
light: B5 light
notes: heterodimerized anti-EREG antibody with the RGD peptide inserted in a loop region of the H240-Kn125 chain; also called H240-Kn125-ma1/H240-HI076/L73
Q: Which Kd (FcγRIIIa [14]) does the source give for B6 here?
A: The Kd was 160 nM.

B7: H240-G1dE/H240-G1dE/L73 (antibody, human IgG1, kappa)
heavy: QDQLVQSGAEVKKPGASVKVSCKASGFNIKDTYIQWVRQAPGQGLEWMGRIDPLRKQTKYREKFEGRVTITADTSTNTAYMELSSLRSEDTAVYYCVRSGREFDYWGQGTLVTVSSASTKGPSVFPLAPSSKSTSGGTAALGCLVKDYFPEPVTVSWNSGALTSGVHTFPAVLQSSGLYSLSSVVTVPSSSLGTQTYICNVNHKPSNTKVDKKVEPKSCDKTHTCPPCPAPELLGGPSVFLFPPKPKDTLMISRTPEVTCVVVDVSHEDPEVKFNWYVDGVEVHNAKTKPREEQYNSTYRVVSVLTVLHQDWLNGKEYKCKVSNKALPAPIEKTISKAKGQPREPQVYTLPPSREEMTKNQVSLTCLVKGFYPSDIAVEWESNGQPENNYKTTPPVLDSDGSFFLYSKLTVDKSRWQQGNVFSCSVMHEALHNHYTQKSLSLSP
light: B5 light
notes: anti-EREG antibody with constant regions derived from human natural IgG1; also called IgG1; naturally occurring IgG1
Q: For B7, which Kd (FcγRIIIa [14]) is on record?
A: The Kd was 290 nM.

Q: And the Kd (FcγRIIIaV)?
A: The Kd was 340 nM.

B8: H240-Kn125/H240-Hl076/L73-k0 (antibody, human IgG1, kappa)
heavy 1: QDQLVQSGAEVKKPGASVKVSCKASGFNIKDTYIQWVRQAPGQGLEWMGRIDPLRKQTKYREKFEGRVTITADTSTNTAYMELSSLRSEDTAVYYCVRSGREFDYWGQGTLVTVSSASTKGPSVFPLAPSSKSTSGGTAALGCLVKDYFPEPVTVSWNSGALTSGVHTFPAVLQSSGLYSLSSVVTVPSSSLGTQTYICNVNHKPSNTKVDKKVEPKSCDKTHTCPPCPAPEYQWGPMVFLFPPKPKDTLMISRTPEVTCVVVDVSDEEPEVKFNWYVDGVEVHNAKTKPREEQYNATYRVVSVLTVLHQDWLNGKEYKCKVSNKALPAPIEKTISKAKGQPREPQVCTLPPSRDELTKNQVSLWCLVKGFYPSDIAVEWESNGQPENNYKTTPPVLDSDGSFFLYSKLTVDKSRWQQGNVFSCSVMHEALHNHYTQKSLSLSP
heavy 2: B6 heavy 1
light: B5 light
notes: heterodimerized anti-epiregulin IgG1
Q: B8 was tested. Which Kd [2] did it give?
A: The Kd was 0.37 nM.

Q: What about the Kd [3] of the same binder?
A: Its Kd is 190 nM.

Q: And the Kd [4]?
A: Its Kd is 4200 nM.

Q: And the Kd [5]?
A: Its Kd is 1.2 nM.

Q: What about the Kd [6] of the same binder?
A: The Kd was 380 nM.

Q: And the Kd [7]?
A: Its Kd is 0.24 nM.

Reference: patent US20260167699A1 (Chugai, published 2026)
